Laboratory results published in publication PMC12486381 (Molecular Biology and Evolution, 2025).
Values joined by “and” are separate entries in the source; they are usually repeats but may differ in a detail not shown here. Equal entries are not always repeated. Where two headings read alike, the source gives them in different places. Each block holds one molecule with its values, some of them ahead of it.

Key:
A0A0N7CEH1 = experiment: initial rate of NADPH and DHF depletion at […] nm, Michaelis-Menten fit; assay type: biochemical, Skermania phage SPI1; conditions: 50 mM potassium phosphate pH 7, 27 °C
A0A5E7Z8W7 = experiment: as above; assay type: biochemical, Hoeflea sp. EC-HK425; conditions: 50 mM potassium phosphate pH 7, 27 °C
BBD029md-00326_13692 = experiment: as above; assay type: biochemical; conditions: 50 mM potassium phosphate pH 7, 27 °C
A0A839U7A6 = experiment: as above; assay type: biochemical, Phyllobacterium trifolii; conditions: 50 mM potassium phosphate pH 7, 27 °C
[1] = system: DfrB-TS (BBD027md-00173_03685); experiment: as above; assay type: biochemical; conditions: read-out: K M ^DHF; DfrB domain; 50 µM NADPH, 50 mM potassium phosphate pH 7, 27 °C
UPI001402A2DF = experiment: as above; assay type: biochemical; conditions: 50 mM potassium phosphate pH 7, 27 °C
[2] = biological target: DfrB1 (type B dihydrofolate reductase 1); experiment: SEC
DfrB homolog A0A0N7CEH1 = experiment: SEC
DfrB homolog A0A1M7UVF4 = experiment: SEC
DfrB homolog A0A1R3X8F5 = experiment: SEC
DfrB homolog A0A5E7Z8W7 = experiment: SEC
DfrB homolog A0A6J5PTB3 = experiment: SEC
DfrB homolog A0A345GTK3 = experiment: SEC
DfrB homolog A0A839U7A6 = experiment: SEC
[3] = biological target: DfrB homolog BBD029md-00326_13692; experiment: SEC
DfrB homolog E2SFM2 = experiment: SEC
[4] = biological target: DfrB homolog UPI001402A2DF; experiment: SEC
[5] = biological target: DfrB-TS (BBD027md-00173_03685); experiment: SEC
[6] = read-out: K M ^DHF, 50 µM NADPH
[7] = read-out: K M ^NADPH, 50 µM DHF

Chain of DfrB1 (type B dihydrofolate reductase 1) (P00383 whole entry): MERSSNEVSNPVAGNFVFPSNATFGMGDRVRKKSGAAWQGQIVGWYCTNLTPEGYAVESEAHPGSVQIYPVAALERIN

- Km (A0A0N7CEH1; [6]): 6 ± 2 µM
- Km (A0A5E7Z8W7; [6]): 7 ± 4 µM
- Km (BBD029md-00326_13692; [6]): 36 ± 4 µM
- Km (A0A839U7A6; [6]): 44 ± 5 µM
- Km [1]: 28 ± 3 µM
- Km (UPI001402A2DF; [6]): 130 ± 20 µM
Molecule: Nc1nc2c(c(=O)[nH]1)N=C(CNc1ccc(C(=O)N[C@@H](CCC(=O)O)C(=O)O)cc1)CN2 [DHF]

- Km (A0A0N7CEH1; [7]): 5.7 ± 0.6 µM
- Km (A0A5E7Z8W7; [7]): 18 ± 2 µM
- Km (BBD029md-00326_13692; [7]): 20 ± 10 µM
- Km (A0A839U7A6; [7]): 10 ± 5 µM
- Km (UPI001402A2DF; [7]): 11 ± 1 µM
Molecule: NC(=O)C1=CN([C@@H]2O[C@H](COP(=O)(O)OP(=O)(O)OC[C@H]3O[C@@H](n4cnc5c(N)ncnc54)[C@H](OP(=O)(O)O)[C@@H]3O)[C@@H](O)[C@H]2O)C=CC1 [NADPH]

Molecule: DfrB1 (type B dihydrofolate reductase 1) (enzyme)
- stoichiometry N [2]: 4

- stoichiometry N (DfrB homolog A0A0N7CEH1): 4
Molecule: DfrB homolog A0A0N7CEH1 (enzyme)

- stoichiometry N (DfrB homolog A0A1M7UVF4): 2
Molecule: DfrB homolog A0A1M7UVF4 (natural protein)

- stoichiometry N (DfrB homolog A0A1R3X8F5): 4
Molecule: DfrB homolog A0A1R3X8F5 (natural protein)

- stoichiometry N (DfrB homolog A0A5E7Z8W7): 4
Molecule: DfrB homolog A0A5E7Z8W7 (enzyme)

- stoichiometry N (DfrB homolog A0A6J5PTB3): 4
Molecule: DfrB homolog A0A6J5PTB3 (enzyme)

- stoichiometry N (DfrB homolog A0A345GTK3): 2
Molecule: DfrB homolog A0A345GTK3 (natural protein)

- stoichiometry N (DfrB homolog A0A839U7A6): 4
Molecule: DfrB homolog A0A839U7A6 (enzyme)

- stoichiometry N [3]: 4
Molecule: DfrB homolog BBD029md-00326_13692 (enzyme)

- stoichiometry N (DfrB homolog E2SFM2): 4
Molecule: DfrB homolog E2SFM2 (natural protein)

- stoichiometry N [4]: 4
Molecule: DfrB homolog UPI001402A2DF (enzyme)

Molecule: DfrB-TS (BBD027md-00173_03685) (enzyme)
- stoichiometry N [5]: 4 and 8
